Data on one variant can be found in IntAct's records for PubMed 19732766.

The labels stand for the following.
B1: U3 small nucleolar RNA-associated protein 4 homolog (Homo sapiens), Q969X6 (parent)
chain: MGEFKVHRVRFFNYVPSGIRCVAYNNQSNRLAVSRTDGTVEIYNLSANYFQEKFFPGHESRATEALCWAEGQRLFSAGLNGEIMEYDLQALNIKYAMDAFGGPIWSMAASPSGSQLLVGCEDGSVKLFQITPDKIQFERNFDRQKSRILSLSWHPSGTHIAAGSIDYISVFDVKSGSAVHKMIVDRQYMGVSKRKCIVWGVAFLSDGTIISVDSAGKVQFWDSATGTLVKSHLIANADVQSIAVADQEDSFVVGTAEGTVFHFQLVPVTSNSSEKQWVRTKPFQHHTHDVRTVAHSPTALISGGTDTHLVFRPLMEKVEVKNYDAALRKITFPHRCLISCSKKRQLLLFQFAHHLELWRLGSTVATGKNGDTLPLSKNADHLLHLKTKGPENIICSCISPCGSWIAYSTVSRFFLYRLNYEHDNISLKRVSKMPAFLRSALQILFSEDSTKLFVASNQGALHIVQLSGGSFKHLHAFQPQSGTVEAMCLLAVSPDGNWLAASGTSAGVHVYNVKQLKLHCTVPAYNFPVTAMAIAPNTNNLVIAHSDQQVFEYSIPDKQYTDWSRTVQKQGFHHLWLQRDTPITHISFHPKRPMHILLHDAYMFCIIDKSLPLPNDKTLLYNPFPPTNESDVIRRRTAHAFKISKIYKPLLFMDLLDERTLVAVERPLDDIIAQLPPPIKKKKFGT

In the test the parent is B1. Particulars: with zep1_human HIVEP1, P15822.
Take R565W: the “effect of a mutation on the interaction” value is “decreasing interaction”.
